Laboratory results: US20120065365A1, “Stable Radiopharmaceutical Compositions and Methods for Their Preparation” (BRACCO IMAGING S.P.A., priority 2003, published 2012)
Like-named read-outs stand apart in the source and are kept apart here.

Columns and labels:
[1] = type: physicochemical; conditions: 50 mCi/2 mL in Radiolysis Protecting Solution containing L-methionine, room temperature
Protocol: The injection volume was 20 μL.
A Radiolysis Protecting Solution was prepared to contain 10 mg/mL gentisic acid; 50 mg/mL ascorbic acid sodium salt; 2 mg/mL HSA; 2.98 mg/mL L-methionine, 0.9% (v:v) benzyl alcohol and 1 mg/mL of Na2EDTA.2H2O in 0.05 M, pH 5.3 citrate buffer. […] The mixture was incubated at 100° C. for 5 min, and then cooled to room temperature with a water bath. A 1-mL aliquot of the Radiolysis Protecting Solution was immediately added. The reaction vial was stored in an autosampler chamber and the stability was analyzed by Reversed Phase HPLC over time, using HPLC Methods 3 and 4. The results obtained for ^177Lu-B are shown in the chromatograms in FIG. 9.

[2] = type: physicochemical; conditions: Radiolysis Protecting Solution containing L-selenomethionine, room temperature
Protocol: ^177Lu-A and ^177Lu-B were prepared at a 50 mCi level as described in EXAMPLE 4. Immediately after cooling the reaction mixtures to room temperature, 1 mL of a Radiolysis Protecting solution was added, containing 10 mg/mL gentisic acid; 50 mg/mL ascorbic acid sodium salt; 2 mg/mL HSA; 3.92 mg/mL L-selenomethionine, 0.9% (v:v) benzyl alcohol and 1 mg/mL of Na2EDTA.2H2O in 0.05 M, pH 5.3 citrate buffer. The reaction vials were stored in the autosampler chamber and the stability was analysed by RP-HPLC over time using HPLC Methods 3 [^177Lu-A] or 4 [^177Lu-B].

[3] = type: physicochemical; conditions: 50 mCi/2 mL, Radiolysis Protecting Solution, room temperature
Protocol: ^177Lu-A and ^177Lu-B were prepared at a 50 mCi level as described in EXAMPLE 4. Immediately after cooling the reaction mixtures to room temperature, 1 mL of a Radiolysis Protecting Solution was added, containing 10 mg/mL gentisic Acid; 50 mg/mL ascorbic acid sodium salt, 2 mg/mL HSA, (2 mg/mL or 3.52 mg/mL) L-cysteine, 0.9% (v/v) benzyl alcohol and 1 mg/mL of Na2EDTA.2H2O in 0.05 M, pH 5.3 citrate buffer. The reaction vials were stored in the autosampler chamber and the stability was analysed by RP-HPLC over time using HPLC Methods 3 [^177Lu-A] or 4 [^177Lu-B]. Similar results were obtained for ^177Lu-B.

[4] = Stability in Radiolysis Protecting Solution containing methionine (FIG. 4 and similar study); type: physicochemical; conditions: methionine in the radiolysis protecting solution increased to 3 mg/mL
Protocol: Formulations stabilized by such cocktails maintained excellent radiochemical purity (RCP) values (>95% RCP) for as long as 5 days at room temperature. This stabilizing cocktail is added immediately after formation of the radioactive complex, so would be the second vial of a two-vial kit.

[5] = type: physicochemical; conditions: 55 mCi/2 ml, 1 mL radiolysis protecting solution (L-cysteine) added after complex formation, room temperature
[6] = type: physicochemical; conditions: 50 mCi/2 mL, Radiolysis Protecting Solution with 0 mg/mL L-cysteine, room temperature
Protocol: ^177Lu-A was prepared at a 50 mCi level as described in EXAMPLE 4. Immediately after cooling the reaction mixture to room temperature, 1 mL of a Radiolysis Protecting Solution was added, that contained 10 mg/mL gentisic acid; 50 mg/mL ascorbic acid sodium salt; 2 mg/mL HSA; 0.9% (v:v) benzyl alcohol and 1 mg/mL of Na2EDTA.2H2O in 0.05 M, pH 3.3 citrate buffer. The reaction vial was stored in an autosampler chamber and the stability was analysed by RP-HPLC over time.

^177Lu-A: the ^177Lu complex of DOTA-Gly-ACA-Gln-Trp-Ala-Val-Gly-His-Leu-Met-NH2
% RCP 0-d ([1]; 0 d): 100%
% RCP 1-d ([1]; 1 d): 100%
% RCP 2-d ([1]; 2 d): 100%
% RCP 5-d ([1]; 5 d): 100%
% RCP 0-d ([2]; 50 mCi level, 0 d): 97.6%
% RCP 1-d ([2]; 1 d): 98.2%
% RCP 2-d ([2]; 2 d): 97.5%
% RCP 3-d ([2]; 3 d): 97.8%
% RCP 5-d ([2]; 5 d): 99.4%
% RCP 0-d ([3]; L-cysteine 1.0 mg/mL): 100%
% RCP 1-d ([3]; L-cysteine 1.0 mg/mL): 99.9%
% RCP 2-d ([3]; L-cysteine 1.0 mg/mL): 98.4%
% RCP 3-d ([3]; L-cysteine 1.0 mg/mL): 97.5%
% RCP 5-d ([3]; L-cysteine 1.0 mg/mL): 96.9%
% RCP 0-d ([3]; L-cysteine 1.75 mg/mL): 100%
% RCP 1-d ([3]; L-cysteine 1.75 mg/mL): 99.9%
% RCP 2-d ([3]; L-cysteine 1.75 mg/mL): 98.9%
% RCP 3-d ([3]; L-cysteine 1.75 mg/mL): 95.8%
% RCP 5-d ([3]; L-cysteine 1.75 mg/mL): 93.3%
RCP (effective radiostabilization) [4]: > 95%
RCP for 5 days [5]: > 95%
% RCP 0-d (first value of cell) ([6]; 0 d): 100/100%
% RCP 0-d (second value of cell) ([6]; 0 d): 100/100%
% RCP 1-d (first value of cell) ([6]; 1 d): 94.9%
% RCP 1-d (second value of cell) ([6]; 1 d): 99.2%
% RCP 2-d (first value of cell) ([6]; 2 d): 93.6%
% RCP 2-d (second value of cell) ([6]; 2 d): 97.3%
% RCP 3-d (second value of cell) ([6]; 3 d): ND/95.1%
% RCP 5-d (first value of cell) ([6]; 5 d): 90.4%
% RCP 5-d (second value of cell) ([6]; 5 d): 92.9%
